# Assay results taken from article PMC3088709, “Phosphorylation of the Yeast γ-Tubulin Tub4 Regulates Microtubule Function” (PLoS ONE, 2011).
# B1: Tub4 (yeast gamma-tubulin), wild type, untagged [S. cerevisiae] / Spc110 [S. cerevisiae (endogenous in yeast cells)] (parent)
# chain 1: MGGEIITLQAGQCGNHVGKFLWSQLAKEHAIGTDGLSQLPDSSTERDDDTKPFFRENSRNKFTPRAIMMDSEPSVIADVENTFRGFFDPRNTWVASDGASAGNSWANGYDIGTRNQDDILNKIDKEIDSTDNFEGFQLLHSVAGGTGSGLGSNLLEALCDRYPKKILTTYSVFPARSSEVVVQSYNTILALRRLIEDSDATVVFDNASLLNISGKVFRNPNIDLQHTNQLISTIISSVTNSIRFPSYMYSSMSSIYSTLIPSPELHFLSPSFTPFTSDYIHDDIAHKGHSSYDVMLDLLDPSNSLVSTAMNNPTYFNVYNTIIGNVEPRQISRAMTKLQQRIKFPSWSSSAMHVNIGRRSPYLPLQPNENEVSGMMLSNMSTVVNVFENACNTFDKVFAKGAFLNNYNVGDLFQSMQNVQDEFAESREVVQSLMEDYVAAEQDSYLDDVLVDDENMVGELEEDLDADGDHKLV
# chain 2: MDEASHLPNGSLKNMEFTPVGFIKSKRNTTQTQVVSPTKVPNANNGDENEGPVKKRQRRSIDDTIDSTRLFSEASQFDDSFPEIKANIPPSPRSGNVDKSRKRNLIDDLKKDVPMSQPLKEQEVREHQMKKERFDRALESKLLGKRHITYANSDISNKELYINEIKSLKHEIKELRKEKNDTLNNYDTLEEETDDLKNRLQALEKELDAKNKIVNSRKVDDHSGCIEEREQMERKLAELERKLKTVKDQVLELENNSDVQSLKLRSKEDELKNLMNELNELKSNAEEKDTQLEFKKNELRKRTNELNELKIKSDEMDLQLKQKQNESKRLKDELNELETKFSENGSQSSAKENELKMLKNKIAELEEEISTKNSQLIAKEGKLASLMAQLTQLESKLNQRDSQLGSREEELKKTNDKLQKDIRIAREETVSKDERIIDLQKKVKQLENDLFVIKKTHSESKTITDNELESKDKLIKILENDLKVAQEKYSKMEKELKEREFNYKISESKLEDEKTTLNEKISNLAAENSQLKNKIEDNSTATHHMKENYEKQLESLRKDIEEYKESAKDSEDKIEELKIRIAENSAKVSEKRSKDIKQKDEQISDLTQNLKLQEDEISSLKSIIDRYKKDFNQLKSEQSNIQHDLNLQILNLENKLIESEDELKSLRDSQKIEIENWKRKYNNLSLENDRLLTEKESASDKEREISILNRKLDEMDKEKWNLQESKEKYKRELQKVITANDRLRREKEELNENSNNIRIMEDKMTRIKKNYLSEITSLQEENRRLEERLILNERRKDNDSTMQLNDIISYYKLKYHSEVRHNNDLKVINDYLNKVLALGTRRLRLDTRKGEHSLNISLPDDDELDRDYYNSHVYTRYHDYEYPLRFNLNRRGPYFERRLSFKTVALLVLACVRMKRIAFYRRSDDNRLRILRDRIESSSGRISW
# Variants of: B1
# Assay: co-immunoprecipitation (anti-HA IP of Spc97-3HA), quantified immunoblot
# Details: with Spc110 [S. cerevisiae (endogenous in yeast cells)], Indirect: Spc110 recovered in Spc97-3HA IP from tub4-S100E cells, TUB4-AID SPC97-3HA cells, IAA for 2 h at 30°C, normalized to precipitated Spc97-3HA, read off a plot
row,Variant,ratio to parent [RI]
1,chain 1 S100E,0.76

# Same assay, conditions: with Spc110 [S. cerevisiae (endogenous in yeast cells)], Indirect: Spc110 recovered in Spc97-3HA IP from tub4-S360D cells, TUB4-AID SPC97-3HA cells, IAA for 2 h at 30°C, normalized to precipitated Spc97-3HA, read off a plot
row,Variant,ratio to parent [RI]
1,chain 1 S360D,0.28

# Same assay, conditions: with Spc110 [S. cerevisiae (endogenous in yeast cells)]; Indirect: Spc110 recovered in Spc97-3HA IP from tub4-S74E cells; TUB4-AID SPC97-3HA cells, IAA for 2 h at 30°C; normalized to precipitated Spc97-3HA; parent: 1; read off a plot
row,Variant,ratio to parent [RI]
1,chain 1 S74E,1.3
